Patent publication US20050202434

Biological target: T1, metallo-beta-lactamase (beta-lactamase II) 5/B/6 (Bacillus cereus) (UniProt P14488)
T1 sequence: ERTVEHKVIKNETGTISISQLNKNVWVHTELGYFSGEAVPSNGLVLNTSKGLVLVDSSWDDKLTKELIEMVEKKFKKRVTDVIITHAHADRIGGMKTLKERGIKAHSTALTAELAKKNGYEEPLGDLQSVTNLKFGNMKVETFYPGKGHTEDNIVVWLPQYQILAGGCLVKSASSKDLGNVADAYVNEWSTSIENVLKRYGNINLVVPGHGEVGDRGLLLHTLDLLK
Experiment: inhibition

ANCNANNNTTNNNTNGNNGNNCATNNNNAA [round 16 SELEX pool (consensus 30N)]
activity (% control activity): 47

GCGCCATATGCGCGCGNNNNNNNNNNNNNNNNNNNNNNNNNNNNNNCGCGCGGAGCTCGCG [initial random 61-mer pool]
activity (% control activity): 100
